The nature of the data set: self-splicing fitness, log relative to wild type (ln ratio); higher = more splicing; Tetrahymena group I intron in knt gene, E. coli kanamycin selection, DiMSum; sequences stand for … in CUCUCU…GGAGGGAAAAGUUAUCAGGCAUGCACCUGGUAGCUAGUCUUUAAACCAAUAGAUUGCAUCGGUUUAAAAGGCAAGACCGUCAAAUUGCGGGAAAGGGGUCAACAGCCGUUCAGUACCAAGUCUCAGGGGAAACUUUGAGAUGGCCUUGCAAAGGGUAUGGUAAUAAGCUGACGGACAUGGUCCUAACCACGCAGCCAAGUCCUAAGUCAACAGAUCUUCUGUUGAUAUGGAUGCAGUUCACAGACUAAAUGUCGGUCGGGGAAGAUGUAUUCUUCUCAUAAGAUAUAGUCGGACCUCUCCUUAAUGGGAGCUAGCGGAUGAAGUGAUGCAACACUGGAGCCGCUGGGAACUAAUUUGUAUGCGAAAGUAUAUUGAUUAGUUUUGGAGUACUCGUGGUCG
In outline:
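Library with all eight P1ex-region intron nucleotides randomised, intron inside the knt kanamycin-resistance gene on pET-22b(+), in E. coli BL21(DE3). Cells grew overnight at 37°C or 30°C on LB agar with or without 25 μg/mL kanamycin (plus 100 μg/mL carbenicillin, 50 μM IPTG, 0.2% rhamnose), in six replicate transformations. Pooled colonies were amplicon-sequenced on Illumina HiSeq 2500. DiMSum fitness is the error-weighted combination of wild-type-normalised replicate fold changes, kanamycin versus none.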

± gives the uncertainty stated by the source.

For GAUAAGCAAUAUUACGGAAG, the “self-splicing fitness (ln)” value runs as follows: (30 °C) -3.56 ± 0.35; (37 °C) -1.95 ± 0.23.
In the case of GAUAAGCAAUAUUACGGACC, the “self-splicing fitness (ln)” value (30 °C) was -1.24 ± 0.25 and the “self-splicing fitness (ln)” value (37 °C) is -1.4 ± 0.28.
Taken in the same sequence, the figures for GAUAAGCAAUAUUACGGACG were -1.08 ± 0.13 and -0.201 ± 0.14.
Taken in the same sequence, the figures for GAUAAGCAAUAUUACGGAUC were -1.37 ± 0.18 and -0.674 ± 0.25.
Taken in the same sequence, the figures for GAUAAGCAAUAUUACGGCGU were 0.319 ± 0.077 and 0.486 ± 0.1.
On to GAUAAGCAAUAUUACGGGCU, for which the “self-splicing fitness (ln)” value was -1.95 ± 0.11 (30 °C) and -1.91 ± 0.16 (37 °C).
As for GAUAAGCAAUAUUACGGUCC, the “self-splicing fitness (ln)” value (37 °C) was -3.48 ± 0.46.
Turning to GAUAAGCAAUAUUACGUAAA, the “self-splicing fitness (ln)” value (30 °C) is -2.24 ± 0.17 and the “self-splicing fitness (ln)” value (37 °C) was -1.19 ± 0.17.
The matching figures for GAUAAGCAAUAUUACGUCAU: -2.38 ± 0.086 and -1.62 ± 0.095.
For the sequence GAUAAGCAAUAUUACGUCGG, the “self-splicing fitness (ln)” value was -3.81 ± 0.35 (30 °C) and -3.35 ± 0.28 (37 °C).
Taken in the same sequence, the figures for GAUAAGCAAUAUUACGUGAU were -2.21 ± 0.12 and -0.957 ± 0.12.
GAUAAGCAAUAUUACGUUAG: the “self-splicing fitness (ln)” value by setting is: (30 °C) -5.21 ± 0.45; (37 °C) -2.27 ± 0.22.
Taken in the same sequence, the figures for GAUAAGCAAUAUUACGUUGA were -2.88 ± 0.14 and -1.79 ± 0.14.
GAUAAGCAAUAUUACGUUUA: the “self-splicing fitness (ln)” value was -1.59 ± 0.12 (30 °C) and -0.982 ± 0.12 (37 °C).
Taken in the same sequence, the figures for GAUCAGCAAUAUUACGAAGU were -1.17 ± 0.12 and -0.265 ± 0.13.
The matching figures for GAUCAGCAAUAUUACGACAC: 0.702 ± 0.14 and 0.591 ± 0.17.
Taken in the same sequence, the figures for GAUCAGCAAUAUUACGACCC were -2.02 ± 0.2 and -1.65 ± 0.29.
Regarding GAUCAGCAAUAUUACGACCG, the “self-splicing fitness (ln)” value by setting is: (30 °C) -1.01 ± 0.11; (37 °C) -0.323 ± 0.14.
The matching figures for GAUCAGCAAUAUUACGACUU: 0.107 ± 0.092 and -0.119 ± 0.11.
Consider GAUCAGCAAUAUUACGAGCA, for which the “self-splicing fitness (ln)” value reads like this: (30 °C) -1.26 ± 0.1; (37 °C) -0.318 ± 0.1.
Taken in the same sequence, the figures for GAUCAGCAAUAUUACGAUCC were -3.69 ± 0.37 and -2.18 ± 0.39.
Taken in the same sequence, the figures for GAUCAGCAAUAUUACGCCGA were -0.954 ± 0.12 and -0.727 ± 0.11.
As for GAUCAGCAAUAUUACGCGCC, the “self-splicing fitness (ln)” value reads like this: (30 °C) -0.0847 ± 0.14; (37 °C) -0.763 ± 0.17.
Taken in the same sequence, the figures for GAUCAGCAAUAUUACGCUUC were -3.16 ± 0.22 and -2.25 ± 0.43.
Regarding GAUCAGCAAUAUUACGGAGA, the “self-splicing fitness (ln)” value reads like this: (30 °C) -2.08 ± 0.17; (37 °C) -0.869 ± 0.14.
Taken in the same sequence, the figures for GAUCAGCAAUAUUACGGCGC were -0.52 ± 0.11 and 0.0329 ± 0.14.
Taken in the same sequence, the figures for GAUCAGCAAUAUUACGGGAA were -0.882 ± 0.13 and -1.04 ± 0.13.
Take GAUCAGCAAUAUUACGGUGU: the “self-splicing fitness (ln)” value by setting is: (30 °C) -0.951 ± 0.072; (37 °C) 0.335 ± 0.093.
Taken in the same sequence, the figures for GAUCAGCAAUAUUACGUACG were -1.5 ± 0.14 and -0.586 ± 0.14.
The matching figures for GAUCAGCAAUAUUACGUAGG: -1.87 ± 0.1 and -1.48 ± 0.14.
Taken in the same sequence, the figures for GAUCAGCAAUAUUACGUGAU were -3.23 ± 0.18 and -2.93 ± 0.22.
Consider GAUCAGCAAUAUUACGUUAG, for which the “self-splicing fitness (ln)” value runs as follows: (30 °C) -2.05 ± 0.12; (37 °C) -1.92 ± 0.17.
The matching figures for GAUCAGCAAUAUUACGUUGG: -3.67 ± 0.24 and -0.912 ± 0.12.
Consider GAUGAGCAAUAUUACGAAUU, for which the “self-splicing fitness (ln)” value (30 °C) is -3.84 ± 0.47.
For the sequence GAUGAGCAAUAUUACGACUU, the “self-splicing fitness (ln)” value by setting is: (30 °C) -0.252 ± 0.071; (37 °C) 0.118 ± 0.089.
For the sequence GAUGAGCAAUAUUACGAGAU, the “self-splicing fitness (ln)” value (37 °C) was -3.21 ± 0.47.
Take GAUGAGCAAUAUUACGAGUC: the “self-splicing fitness (ln)” value (30 °C) is -4.11 ± 0.33 and the “self-splicing fitness (ln)” value (37 °C) is -2.21 ± 0.19.
Regarding GAUGAGCAAUAUUACGAUAU, the “self-splicing fitness (ln)” value by setting is: (30 °C) -3.81 ± 0.21; (37 °C) -2.58 ± 0.24.

(Values after the supplement of paper PMC7877785.)
